B1: mRNA-splicing (parent)
chain: AGUUGCUGCUGGGAGCUCCAGCACAGUGAAAUGGACAGAAGGGCAGAGCAA

These results are taken from the RNAGym collection of RNA variant scans (doi:10.1101/gr.219683.116).

The variants in this data set derive from B1. The data set is described as follows: exon inclusion enrichment index; higher = more inclusion; WT1 exon 5 minigene, HEK293.
For the variant AGUUUCUUUUGGGAGCUCCAGCACAGUGAAAUGGACAGAAGGGCAGAGCAA, the “exon inclusion enrichment index” value stood at 0.16.
In the case of AGUUCACACAGGGAGCUCCAGCACAGUGAAAUGGACAGAAGUCCAGAGCAA it was 0.0644; in that of AGUUGCUGCUGGGAGCUCCAGCACAGUGAAAUGGACCCAAGGGCAGAGCAA, 0.217; in that of AGUUGACGACUAGAGCUCCAGCACAGUGAAAUGGACAGAAGGGCAGAGCAA, 1.25.
In the case of AGUUCACACAGGGAGCUCCAGCACAGUGAAAUGGACAGAAGGCUAGAGCAA it was 0.0879; in that of AGUUCACACAGGGAGCUCCAGCACAGUUGAAUGGACAGAAGGGCAGAGCAA, 0.0731.
In the case of AUGUCACACAGGGAGCUCCAGCACAGUGAAAUGGACAGAAGGGCAGAGCAA it was 0.503.
Turning to AGUUCUUCUCGGGAGCUCCAGCACAGUGACGUGGACAGAAGGGCAGAGCAA, the “exon inclusion enrichment index” value amounted to 3.01.
Then AGUUCGCGCCGGGACCUCCAGCACAGUGAAAUGGACAGAAGGGCAGAGCAA, with 3.44; and AGUUCACGUAGGGAGCUCCAGCACAGUGAAAUGGACAGAAGGGCAGAGCAA, with 0.0237; and AGUUCGCGCCGGGAGCUCCAGCACAGUGAAAUAAACAGAAGGGCAGAGCAA, with 0.795.
Then AGUUGAAGAAGGGAGCUCCAGCACAGUGAAACGGACAGAAGGGCAGAGCAA, with 1.37.
Then AGUUGAAGAAGCCAGCUCCAGCACAGUGAAAUGGACAGAAGGGCAGAGCAA, with 1.06; and AGUUCGCGCCGGGAGCUCCAGCACAUUGAAAUGGACAGAAGGGCAGAGCAA, with 3.19; and AGUUAGGGAUGGCAGCUCCAGCACAGUGAAAUGGACAGAAGGGCAGAGCAA, with 0.00103.
AGUUACCACCGGACGCUCCAGCACAGUGAAAUGGACAGAAGGGCAGAGCAA: the “exon inclusion enrichment index” value is 2.98.
Take AGUUACCACCGGGAGCUCCAGCACAGUGAAAUGGACCGAAGGGCAGAGCAA: the “exon inclusion enrichment index” value came out at 3.08.
Then AGUUGCUGCUGGGAGCUCCAGCACAGUGAAAUGGACAGAAGUGCAGAGCAA, with 0.329; and AGUUGACGACGGGAGCUCCAGCACAGAAAAAUGGACAGAAGGGCAGAGCAA, with 2.98.
On to AGUUCACACAGGGAGCUCCGCCACAGUGAAAUGGACAGAAGGGCAGAGCAA, for which the “exon inclusion enrichment index” value was 0.164.
Then AGUUAGGGAUGGGAGCUCAUGCACAGUGAAAUGGACAGAAGGGCAGAGCAA, with 0.00128; and AGUUAGGGAUGGGAGCUCCAGCACAGUGAAAGUGACAGAAGGGCAGAGCAA, with 0.000945; and AGUUAUAUAUGGUGGCUCCAGCACAGUGAAAUGGACAGAAGGGCAGAGCAA, with 0.00922.
Then AGUUAGGGAUGGGAGCUCCAGCACAGUGAAAUGGACAGGGGGGCAGAGCAA, with 0.0132.
With AGUUAAUUAUGGGAGCUCCAGCACAGUGAAAUGGACAGAAGGGCAGAGCAA, the “exon inclusion enrichment index” value is 0.0357.
Then AGUUAUAUAUGGGAGCUCCAGCGCAGUGAAAUGGACAGAAGGGCAGAGCAA, with 0.157; and AGUUUCUUUUGGGAGCUCAAGCACAGUGAAAUGGACAGAAGGGCAGAGCAA, with 0.0498.
In the case of AGUUACCACCGGGAGCUCCAGCACAGUGAAGAGGACAGAAGGGCAGAGCAA it was 4.37; in that of AGUUCACACCGGGAGCUCCAGCACAGUGAAAUGGACAGAAGGGCAGAGCAA, 1.71; in that of AGUUUCUUUUGGGAGCUCCAGCACAGAAAAAUGGACAGAAGGGCAGAGCAA, 0.173.
In the case of AGUUCACACAGGGAGCUCCAGCGCAGUGAAAUGGACAGAAGGGCAGAGCAA it was 0.287; in that of AGUUCGCGCCGGGAGCUCCAGAGCAGUGAAAUGGACAGAAGGGCAGAGCAA, 3.83.
As to AGUUACCACCGGGAGCUCCAGCACAGUGGCAUGGACAGAAGGGCAGAGCAA, the “exon inclusion enrichment index” value came to 1.32.
Then AGUUGCUGCUGGGAGCUCCAGCACAGUGAGGUGGACAGAAGGGCAGAGCAA, with 0.0117.
Then AGUUGACGACGGGAGUCCCAGCACAGUGAAAUGGACAGAAGGGCAGAGCAA, with 2.51.
In the case of AGUUAGGGACGGGAGCUCCAGCACAGUGAAAUGGACAGAAGGGCAGAGCAA it was 0.00449; in that of AGUUUCUUUUGGGAGCUCGUGCACAGUGAAAUGGACAGAAGGGCAGAGCAA, 0.14; in that of AGUGUGGGAUGGGAGCUCCAGCACAGUGAAAUGGACAGAAGGGCAGAGCAA, 0.0442.
For the variant AACUACCACCGGGAGCUCCAGCACAGUGAAAUGGACAGAAGGGCAGAGCAA, the “exon inclusion enrichment index” value was 2.1.
Then AGUUGAAGAAGACAGCUCCAGCACAGUGAAAUGGACAGAAGGGCAGAGCAA, with 1.94; and AGUUGAAGACAGGAGCUCCAGCACAGUGAAAUGGACAGAAGGGCAGAGCAA, with 1.91.
Take AGUGUCUGCUGGGAGCUCCAGCACAGUGAAAUGGACAGAAGGGCAGAGCAA: the “exon inclusion enrichment index” value was 0.105.
Then AGUUCUUCUCGGGAGCUCCAGAUCAGUGAAAUGGACAGAAGGGCAGAGCAA, with 1.31; and AGUUGAAGAAGGGAGCUCCAGCACAGUCUAAUGGACAGAAGGGCAGAGCAA, with 0.358; and AUCUAUAUAUGGGAGCUCCAGCACAGUGAAAUGGACAGAAGGGCAGAGCAA, with 0.557.
In the case of AGUUAUGGAUGGGAGCUCCAGCACAGUGAAAUGGACAGAAGGGCAGAGCAA it was 0.561.
Then AGUUGAAGCAGGGAGCUCCAGCACAGUGAAAUGGACAGAAGGGCAGAGCAA, with 0.234; and AGUUAGGGAUGGGAGCUCCAGCACUCUGAAAUGGACAGAAGGGCAGAGCAA, with 0.00304; and AGUUGACGAAAGGAGCUCCAGCACAGUGAAAUGGACAGAAGGGCAGAGCAA, with 1.98.
For AGUUCACGAAGGGAGCUCCAGCACAGUGAAAUGGACAGAAGGGCAGAGCAA, the “exon inclusion enrichment index” value came to 0.851.
In the case of AGUUGAAGAAGGGAGCUCCAGCACAGUGAUUUGGACAGAAGGGCAGAGCAA it was 0.426; in that of AGUUAUGUAUGGGAGCUCCAGCACAGUGAAAUGGACAGAAGGGCAGAGCAA, 0.144; in that of AGUUAUAUAUGGGAGCUCCAGCACAGUGAAAUGGACAGAUGGGCAGAGCAA, 0.0441.
Take AGUUGCUGCUGGGAGCUCCAGCACAGUGAACCGGACAGAAGGGCAGAGCAA: the “exon inclusion enrichment index” value was determined as 0.643.
With AGUUCUUCUCGGGAGGGCCAGCACAGUGAAAUGGACAGAAGGGCAGAGCAA, the “exon inclusion enrichment index” value came to 0.254.
Then AGUUGCUGCUGGGAGCUCCAGCACAGUGAAAUGGACAUGAGGGCAGAGCAA, with 0.0472.
In the case of AGUUCUCACAGGGAGCUCCAGCACAGUGAAAUGGACAGAAGGGCAGAGCAA it was 0.137; in that of AGUUUCUUUUGGGAGCUCCAGCACAGUGAAAUGGACGCAAGGGCAGAGCAA, 0.241; in that of AGUUGAAGAAGGGAGCUCCAGCACAGUGAAAACGACAGAAGGGCAGAGCAA, 0.991.
As to AGUCUGCGCCGGGAGCUCCAGCACAGUGAAAUGGACAGAAGGGCAGAGCAA, the “exon inclusion enrichment index” value worked out at 4.01.
Then AGUUUCUUUUGGGAGCUCCAGCACAGUGAAAUGGAACGAAGGGCAGAGCAA, with 0.21; and AGUUUCUUUUGGGAGCUCCAGCACAGUGAAAUGGAAUGAAGGGCAGAGCAA, with 0.0263.
In the case of AGUUACCACCGGGAGCUCCAGCACAGAGAAAUGGACAGAAGGGCAGAGCAA it was 2.49; in that of AGUUACCAAUGGGAGCUCCAGCACAGUGAAAUGGACAGAAGGGCAGAGCAA, 0.923.
Turning to AGUUGAAGAAGGGAGCUCCAGCACACCGAAAUGGACAGAAGGGCAGAGCAA, the “exon inclusion enrichment index” value came to 2.32.
Regarding AGUUGAGGAUGGGAGCUCCAGCACAGUGAAAUGGACAGAAGGGCAGAGCAA, the “exon inclusion enrichment index” value was 0.123.
Then AGUUAGCCAUGGGAGCUCCAGCACAGUGAAAUGGACAGAAGGGCAGAGCAA, with 0.0805; and AGUUGCUGCUGGGAGCUCCAGCACAGUGAAAUCAACAGAAGGGCAGAGCAA, with 0.0659; and AGUUCGCGCCGGGAGCUCCAGCACAGUAAAAUGGACAGAAGGGCAGAGCAA, with 1.63.
On to AGUUUCUUUUGGGAGCUCCAGCAACGUGAAAUGGACAGAAGGGCAGAGCAA, for which the “exon inclusion enrichment index” value was determined as 0.849.
As to AGUUGCAGACGGGAGCUCCAGCACAGUGAAAUGGACAGAAGGGCAGAGCAA, the “exon inclusion enrichment index” value came out at 1.94.
In the case of AGUUGAAGAAGGGAGCUCCAGCACAUAGAAAUGGACAGAAGGGCAGAGCAA it was 0.264; in that of AGUUAUAUAUGGGAGCUCCAGCACAGUGACAUGGACAGAAGGGCAGAGCAA, 0.0649.
In the case of AGUUCUUCUCGGGAGCUCCAGCACAGUGAAAUGGAGUGAAGGGCAGAGCAA it was 0.948; in that of ACGUGCUGCUGGGAGCUCCAGCACAGUGAAAUGGACAGAAGGGCAGAGCAA, 0.163; in that of AGUUCACACAGGGAGCUCCAGCACAGUGAAAUCGACAGAAGGGCAGAGCAA, 0.162.
As to AGUUAGGUCUGGGAGCUCCAGCACAGUGAAAUGGACAGAAGGGCAGAGCAA, the “exon inclusion enrichment index” value was 0.00501.
In the case of AGAUGACGACGGGAGCUCCAGCACAGUGAAAUGGACAGAAGGGCAGAGCAA it was 3.37.
AGUUUCUUUUGGGAGCUCCAGCACAGUGAAAUGGACAGAAGGGUGGAGCAA: the “exon inclusion enrichment index” value was 0.043.
In the case of AGUUGACGACGGGAGCUCCAGCACAGUGAAAUGGACAGAAGGGCAACGCAA it was 3.66.
Then AGUUUGGGAUGGGAGCUCCAGCACAGUGAAAUGGACAGAAGGGCAGAGCAA, with 0.0617; and AGUCCGGGAUGGGAGCUCCAGCACAGUGAAAUGGACAGAAGGGCAGAGCAA, with 2.21; and AGUUGCUGCUGGGAGCUCCAGCACAGUGCGAUGGACAGAAGGGCAGAGCAA, with 0.677.
Regarding AGUUCUUCUCGGGAGCUCCAGCACAGUGAAAUGGACACGAGGGCAGAGCAA, the “exon inclusion enrichment index” value is 1.77.
Take AGUUAUAUAUGGGAGCUCCAGCACAGUGAAAUGGACAGAAUCGCAGAGCAA: the “exon inclusion enrichment index” value amounted to 0.226.
In the case of AGUUCUUCUCGGGAGCUCCAGCACAGUGAAAUGGGCAGAAGGGCAGAGCAA it was 0.766.
Then AGUUACCACCGGGAGCUCCAGCACAGUGAGCUGGACAGAAGGGCAGAGCAA, with 0.305; and AGUUGUAUAUGGGAGCUCCAGCACAGUGAAAUGGACAGAAGGGCAGAGCAA, with 0.17.
Then AGUUCGCGCCGGGAGCUCCAGCACAGUGAAAUGGACAGAAGGGCAAGGCAA, with 1.33; and AGUUCACACAGGGAGCUCCAGCACAGUGAAAUGGACAGAAGGGCAUAGCAA, with 0.0644.
With AGUUGAAGAAGGGAGCUCCAGCACAGUGAAAUGGACAGAAGGGUAGAGCAA, the “exon inclusion enrichment index” value was determined as 0.122.
In the case of AGUUGAAGAAGGGAGCUCCAUAACAGUGAAAUGGACAGAAGGGCAGAGCAA it was 0.136; in that of AGUUAUAUAUGGGAGCUCCAGCACAGUGAAAUGCUCAGAAGGGCAGAGCAA, 0.0109.
In the case of AGGUAGGGAUGGGAGCUCCAGCACAGUGAAAUGGACAGAAGGGCAGAGCAA it was 0.0125.
In the case of AGUUAGGGAUGGGAGGUCCAGCACAGUGAAAUGGACAGAAGGGCAGAGCAA it was 0.00149; in that of AGUUAUAUAUGGGAGCUCCCUCACAGUGAAAUGGACAGAAGGGCAGAGCAA, 0.0238; in that of AGGGAGGGAUGGGAGCUCCAGCACAGUGAAAUGGACAGAAGGGCAGAGCAA, 0.00966.
As to AGUGCAAGAAGGGAGCUCCAGCACAGUGAAAUGGACAGAAGGGCAGAGCAA, the “exon inclusion enrichment index” value stood at 0.624.
In the case of AGUUUCUUUUGGGAGCUCCAGCACAGUGAACGGGACAGAAGGGCAGAGCAA it was 0.188; in that of AGUCGGCGCCGGGAGCUCCAGCACAGUGAAAUGGACAGAAGGGCAGAGCAA, 3.95.
Regarding AGUUGCUGCUGGGAGCUAAAGCACAGUGAAAUGGACAGAAGGGCAGAGCAA, the “exon inclusion enrichment index” value turned out to be 0.547.
Then AGUUCACACAGGGAGCUCCAGCACAGUGAAAUGGGGAGAAGGGCAGAGCAA, with 0.00494.
